Patent US6576610B1, “Use of a context-dependent functional entity to enhance the efficacy of an agent” (Nuvas, LLC, priority 1999, dated 2003)
Entries after “also recorded” stand apart in the source; their conditions may differ.

Tests used:
NV144 = NV144 (UniProt P13726)
TF 1-218 = TF 1-218 (UniProt P13726)
factors IX and X = conditions: Rao et al. 1988; cited from earlier work
Kringle 5 of plasminogen = target: T1, Kringle 5 of plasminogen (Homo sapiens, UniProt P00747); conditions: Chang et al. 1998; read-out: binding to kringle 5 of plasminogen; cited from earlier work
T1 sequence (P00747 481-560 limits assumed): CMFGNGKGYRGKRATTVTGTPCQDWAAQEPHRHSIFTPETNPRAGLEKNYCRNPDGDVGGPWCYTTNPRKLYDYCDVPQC

[1] = target: T2, blood coagulation factor VIIa (UniProt P08709 61-466); test: titration of the amidolytic activity of factor VIIa against protein concentration
T2 sequence (looked up): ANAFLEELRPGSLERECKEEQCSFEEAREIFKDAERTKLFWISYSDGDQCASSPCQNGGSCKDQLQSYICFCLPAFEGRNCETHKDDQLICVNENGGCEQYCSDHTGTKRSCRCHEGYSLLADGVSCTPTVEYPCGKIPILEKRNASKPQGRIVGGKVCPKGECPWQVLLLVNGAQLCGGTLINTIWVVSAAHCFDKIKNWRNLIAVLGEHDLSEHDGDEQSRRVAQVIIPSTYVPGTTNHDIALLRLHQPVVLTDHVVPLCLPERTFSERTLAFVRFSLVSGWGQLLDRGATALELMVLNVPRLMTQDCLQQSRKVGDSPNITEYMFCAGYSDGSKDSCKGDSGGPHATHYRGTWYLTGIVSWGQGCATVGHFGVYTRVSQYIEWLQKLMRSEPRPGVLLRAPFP

[2] = target: T2, blood coagulation factor VIIa; test: surface plasmon resonance, Biacore 2000
factor X = test: Linked functional assay: factor Xa generation by protein:VIIa complex incubated with factor X; assay type: biochemical; conditions: for Relative Proteolytic Activity: factor Xa generation, TF 1-218 = 1.00
[3] = system: MAT B III breast carcinoma tumors; test: Syngeneic MAT B III rat breast carcinoma model; assay type: in vivo, Fisher 344 rats; conditions: NV144 alone
From the text: The MAT B III rat breast carcinoma is very malignant and fast-growing and, unlike many animal tumors, metastasizes. In addition, the tumor-bearing host lives sufficiently long to develop metastatic disease from the primary tumor. As such, the MAT-BIII tumor model has similar characteristics to human tumors.
Fisher 344 rats bearing MAT B III breast carcinoma tumors were used for these studies. Experiments were begun when the tumors reached approximately 170-200 mm3 in size (5-9 days; “day 0”). Tumors in saline treated controls grew very rapidly and reach a size of about 35,000 mm^3 at day 7. In the treatment groups, tumor-bearing rats were treated with NV144 or DOXIL (Sequus Pharmaceuticals, Inc.), either alone or in combination. In the clinic, DOXIL generally is administered at about 4 mg/kg.
At the highest dose of DOXIL (9 mg/kg), survival initially appeared to be similar in both groups of rats; however, none of the animals survived beyond day 23 due to the high dose of DOXIL.

factor VIIa = target: T3, factor VIIa (Homo sapiens, UniProt P08709); test: Surface plasmon resonance (Biacore 2000) binding to factor VIIa; conditions: by surface plasmon resonance and amidolytic titration
T3 sequence (P08709 61-212 limits assumed): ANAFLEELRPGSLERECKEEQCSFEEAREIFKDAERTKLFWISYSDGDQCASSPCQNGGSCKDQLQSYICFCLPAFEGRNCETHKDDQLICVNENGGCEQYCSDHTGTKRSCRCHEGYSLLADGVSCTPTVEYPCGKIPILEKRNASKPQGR
T3 sequence (P08709 213-466 limits assumed): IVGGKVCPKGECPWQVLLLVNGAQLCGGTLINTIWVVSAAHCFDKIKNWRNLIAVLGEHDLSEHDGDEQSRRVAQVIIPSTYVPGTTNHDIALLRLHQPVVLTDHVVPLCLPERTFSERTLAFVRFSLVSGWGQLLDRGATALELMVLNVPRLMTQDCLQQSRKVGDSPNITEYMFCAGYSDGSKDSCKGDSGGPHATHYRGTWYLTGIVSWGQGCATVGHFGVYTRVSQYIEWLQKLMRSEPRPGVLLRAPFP

[4] = system: C1300 neuroblastoma tumor spheroid; test: Intravital microscopy of tumor vessels in skinfold chamber; assay type: in vivo, A/J mouse; conditions: infused over 30 min

blood coagulation factor X
Relative Proteolytic Activity (NV144): 0.86
Relative Proteolytic Activity (TF 1-218): 1

TF: integral transmembrane protein receptor tissue factor, trigger of the coagulation cascade
enhancement of enzymatic activation of substrate factors IX and X on binding of factor VIIa (factors IX and X): ≤ 5,000 fold

NCCCCC(=O)O [5-aminopentanoic acid]
Kd (Kringle 5 of plasminogen): 580000 nM

NCCCCCCC(=O)O [7-aminoheptanoic acid]
Kd (Kringle 5 of plasminogen): 367000 nM

B1: TF 1-218 (receptor, human, UniProt P13726 33-250, looked up)
chain: SGTTNTVAAYNLTWKSTNFKTILEWEPKPVNQVYTVQISTKSGDWKSKCFYTTDTECDLTDEIVKDVKQTYLARVFSYPAGNVESTGSAGEPLYENSPEFTPYLETNLGQPTIQSFEQVGTKVNVTVEDERTLVRRNNTFLSLRDVFGKDLIYTLYYWKSSSSGKKTAKTNTNEFLIDVDKGENYCFSVQAVIPSRTVNRKSTDSPVECMGQEKGEFR
notes: range 1-218; also called isolated truncated TF (tTF) domain alone; tTF
Kd [1]: 4.73 nM
Kd [2]: 3.26 nM
Relative Proteolytic Activity (factor X): 1.00

B2: NV144 (other, human)
chain: PRKLYDGGGGSGGGGSGGGGSTTNTVAAYNLTWKSTNFKTILEWEPKPVNQVYTVQISTKSGDWKSKCFYTTDTECDLTDEIVKDVKQTYLARVFSYPAGNVESTGSAGEPLYENSPEFTPYLETNLGQPTIQSFEQVGTKVNVTVEDERTLVRRNNTFLSLRDVFGKDLIYTLYYWKSSSSGKKTAKTNTNEFLIDVDKGENYCFSVQAVIPSRTVNRKSTDSPVECMG
notes: range 3-211; also called CDFE; context-dependent functional entity
Kd [1]: 4.32 nM
Kd [2]: 3.22 nM

B3: NV144: CDFE fusion polypeptide: truncated human TF domain, (Gly4Ser)3 spacer, plasminogen kringle 5 peptide Pro-Arg-Lys-Leu-Tyr-Asp (protein)
chain: B2 chain
anti-tumor activity when administered alone [3]: little or no effect; also recorded: no significant anti-tumor activity
affinity for factor VIIa compared with isolated truncated TF (tTF) domain alone (factor VIIa): comparable
rate of fluid phase factor Xa generation as compared to tTF (factor X): normal rate
Relative Proteolytic Activity (factor X): 0.86
effects on nearby vessels in skin and nearby angiogenic vessels [4]: No similar effects
rate of blood flow in the tumor [4]: general slowing
vascular permeability of tumor vessels ([4]; plasma leakage into extravascular space and hemorrhage): significant and selective changes
